The target in this data set is mHTT-HAP40 Q54 (expanded mutant huntingtin with HAP40) (UniProt P42858;P23610 1-38+=QQQQQQQQQQQQQQQQQQQQQQQQQQQQQQQQQ+39-3142;1-371, internal_change). Description: fluorescence polarization (method implied); 20 mM Hepes pH 7.4, 50 mM KCl, 2 mM MgCl2, 1 mM TCEP, 2.5% glycerol, 0.005% Tween 20; SPR 20 C, EMSA on ice, FP 10 min (temperature not stated). As to conditions: protein: recombinant; copies: 1;1; label: 5'-FAM (FP, EMSA); biotin (SPR).
Sequence of mHTT-HAP40 Q54 (expanded mutant huntingtin with HAP40) (P42858 other isoform, or with tags, fused parts or gaps | mutant, chain 1 of 2): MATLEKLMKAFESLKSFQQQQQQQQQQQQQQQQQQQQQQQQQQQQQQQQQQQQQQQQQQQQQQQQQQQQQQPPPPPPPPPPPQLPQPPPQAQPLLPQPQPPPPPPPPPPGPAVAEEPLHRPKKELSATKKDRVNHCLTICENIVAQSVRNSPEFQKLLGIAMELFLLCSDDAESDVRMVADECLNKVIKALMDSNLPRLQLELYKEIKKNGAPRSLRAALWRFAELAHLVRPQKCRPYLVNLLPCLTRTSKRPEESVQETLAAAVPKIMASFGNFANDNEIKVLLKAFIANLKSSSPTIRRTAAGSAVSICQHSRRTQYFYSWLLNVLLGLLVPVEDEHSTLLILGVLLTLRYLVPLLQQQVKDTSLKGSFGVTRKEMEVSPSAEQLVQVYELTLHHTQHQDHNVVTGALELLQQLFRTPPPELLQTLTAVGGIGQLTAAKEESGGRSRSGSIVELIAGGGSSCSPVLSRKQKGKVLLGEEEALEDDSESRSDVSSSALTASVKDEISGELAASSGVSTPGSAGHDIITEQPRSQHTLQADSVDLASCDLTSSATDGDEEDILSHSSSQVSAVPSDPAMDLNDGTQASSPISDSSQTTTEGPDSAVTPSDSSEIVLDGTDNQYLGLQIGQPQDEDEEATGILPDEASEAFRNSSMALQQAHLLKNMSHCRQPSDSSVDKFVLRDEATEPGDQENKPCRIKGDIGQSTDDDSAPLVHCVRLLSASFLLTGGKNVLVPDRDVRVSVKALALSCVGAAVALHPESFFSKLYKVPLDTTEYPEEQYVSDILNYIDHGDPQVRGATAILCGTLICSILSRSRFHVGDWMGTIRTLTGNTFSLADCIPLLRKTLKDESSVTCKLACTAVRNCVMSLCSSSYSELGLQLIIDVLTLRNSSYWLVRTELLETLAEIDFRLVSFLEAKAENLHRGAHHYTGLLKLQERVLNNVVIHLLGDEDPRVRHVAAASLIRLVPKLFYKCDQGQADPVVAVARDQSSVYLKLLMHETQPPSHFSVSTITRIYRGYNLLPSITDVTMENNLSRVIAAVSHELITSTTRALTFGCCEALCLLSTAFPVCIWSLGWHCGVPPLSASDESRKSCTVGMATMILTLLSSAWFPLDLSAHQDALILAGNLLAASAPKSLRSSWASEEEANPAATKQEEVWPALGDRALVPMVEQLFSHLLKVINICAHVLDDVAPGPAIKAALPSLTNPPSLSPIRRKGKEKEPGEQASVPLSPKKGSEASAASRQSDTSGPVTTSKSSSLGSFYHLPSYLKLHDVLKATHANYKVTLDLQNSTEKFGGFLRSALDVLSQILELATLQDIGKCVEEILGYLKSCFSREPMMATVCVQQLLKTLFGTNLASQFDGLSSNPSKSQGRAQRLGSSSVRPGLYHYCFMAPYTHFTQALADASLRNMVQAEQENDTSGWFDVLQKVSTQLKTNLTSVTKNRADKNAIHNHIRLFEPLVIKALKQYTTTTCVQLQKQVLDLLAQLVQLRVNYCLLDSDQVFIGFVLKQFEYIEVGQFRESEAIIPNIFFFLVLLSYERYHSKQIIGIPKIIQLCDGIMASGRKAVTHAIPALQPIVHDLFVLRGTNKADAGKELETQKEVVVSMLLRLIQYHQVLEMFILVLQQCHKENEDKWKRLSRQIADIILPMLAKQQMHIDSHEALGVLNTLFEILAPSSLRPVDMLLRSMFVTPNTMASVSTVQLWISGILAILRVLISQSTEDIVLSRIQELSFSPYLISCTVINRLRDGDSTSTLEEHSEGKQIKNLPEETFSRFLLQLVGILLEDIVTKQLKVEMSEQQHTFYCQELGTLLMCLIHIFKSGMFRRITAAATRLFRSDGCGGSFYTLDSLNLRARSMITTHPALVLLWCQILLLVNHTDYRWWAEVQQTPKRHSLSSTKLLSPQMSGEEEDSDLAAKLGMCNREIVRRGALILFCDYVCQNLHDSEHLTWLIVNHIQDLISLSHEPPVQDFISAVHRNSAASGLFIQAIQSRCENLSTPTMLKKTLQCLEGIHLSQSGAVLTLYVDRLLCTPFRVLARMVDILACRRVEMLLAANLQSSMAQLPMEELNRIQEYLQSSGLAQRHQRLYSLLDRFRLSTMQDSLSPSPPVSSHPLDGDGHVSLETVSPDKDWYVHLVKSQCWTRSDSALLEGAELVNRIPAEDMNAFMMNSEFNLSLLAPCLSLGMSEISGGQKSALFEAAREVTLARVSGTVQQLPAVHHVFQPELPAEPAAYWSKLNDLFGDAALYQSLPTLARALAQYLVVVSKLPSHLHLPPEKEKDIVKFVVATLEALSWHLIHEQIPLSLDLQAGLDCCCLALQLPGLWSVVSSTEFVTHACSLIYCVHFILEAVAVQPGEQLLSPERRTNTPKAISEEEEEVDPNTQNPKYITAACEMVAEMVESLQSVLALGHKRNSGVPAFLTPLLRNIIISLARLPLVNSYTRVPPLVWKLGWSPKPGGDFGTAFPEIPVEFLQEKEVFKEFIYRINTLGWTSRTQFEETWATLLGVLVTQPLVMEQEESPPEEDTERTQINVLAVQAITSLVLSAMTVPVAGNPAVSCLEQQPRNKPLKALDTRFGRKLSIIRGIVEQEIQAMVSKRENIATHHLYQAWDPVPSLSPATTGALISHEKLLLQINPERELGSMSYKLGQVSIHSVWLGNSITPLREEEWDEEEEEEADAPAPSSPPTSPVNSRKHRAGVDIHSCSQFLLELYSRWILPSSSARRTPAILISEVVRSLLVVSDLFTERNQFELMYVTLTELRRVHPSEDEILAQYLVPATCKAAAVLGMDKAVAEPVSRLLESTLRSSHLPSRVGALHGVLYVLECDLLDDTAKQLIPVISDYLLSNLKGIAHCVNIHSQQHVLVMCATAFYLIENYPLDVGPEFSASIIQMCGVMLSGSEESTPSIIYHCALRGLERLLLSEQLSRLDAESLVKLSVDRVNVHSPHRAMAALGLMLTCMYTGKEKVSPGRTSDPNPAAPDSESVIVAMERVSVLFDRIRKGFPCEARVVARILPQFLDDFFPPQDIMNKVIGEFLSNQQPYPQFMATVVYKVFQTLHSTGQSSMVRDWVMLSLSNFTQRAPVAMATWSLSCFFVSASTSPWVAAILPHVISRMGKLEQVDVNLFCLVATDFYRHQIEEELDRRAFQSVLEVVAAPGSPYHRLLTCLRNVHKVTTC
Sequence of mHTT-HAP40 Q54 (expanded mutant huntingtin with HAP40) (P23610 whole entry, change not shown, chain 2 of 2): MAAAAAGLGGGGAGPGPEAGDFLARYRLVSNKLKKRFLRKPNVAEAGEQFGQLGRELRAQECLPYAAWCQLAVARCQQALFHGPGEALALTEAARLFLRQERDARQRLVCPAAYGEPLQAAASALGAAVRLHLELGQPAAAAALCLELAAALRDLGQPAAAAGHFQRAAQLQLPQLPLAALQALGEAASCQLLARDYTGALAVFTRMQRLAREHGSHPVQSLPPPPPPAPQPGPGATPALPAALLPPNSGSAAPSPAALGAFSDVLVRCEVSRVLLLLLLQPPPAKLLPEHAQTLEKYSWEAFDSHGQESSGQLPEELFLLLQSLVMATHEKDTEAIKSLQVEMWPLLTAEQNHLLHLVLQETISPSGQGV

B1: 100-mer random ssRNA (ssRNA)
RNA: CACGUAUGAGAAGGUAUUUGCCCGAUAAUCAAUACCCCAGGCUUCUAACUUUUUCCACUCGCUUGAGCCGGCUAGGCCUUUCUGCCCGAAGUUUCGAUGG
Turning to B1, the dissociation constant (Kd) is 500 ± 300 nM.

Source of the values: article PMC11259171, “Huntingtin is an RNA binding protein and participates in NEAT1-mediated paraspeckles”.
